Results from patent US20040059519A1.

Key:
[1] = biological target: Human chorionic gonadotropin (human) (UniProt P01215); assay: multiplex sandwich, MAB602 capture beads; hCG 62 ng/mL, washed
[2] = biological target: Human chorionic gonadotropin (human) (UniProt P01215); assay: MAB602 capture beads, flow cytometry; hCG 0.1 ng/mL, anti-hCG probe
[3] = biological target: Human chorionic gonadotropin (human) (UniProt P01215); assay: multiplex sandwich, MAB602 capture beads; hCG 125 ng/mL, washed
Alpha fetoprotein [4] = biological target: Alpha fetoprotein (UniProt P02771); assay: anti-AFP capture beads, flow cytometry; AFP 100.0 ng/mL, anti-hCG probe
[5] = biological target: Human chorionic gonadotropin (human) (UniProt P01215); assay: multiplex sandwich, MAB602 capture beads; hCG 2 ng/mL, no wash
[6] = biological target: Human chorionic gonadotropin (human) (UniProt P01215); assay: multiplex sandwich, MAB602 capture beads; hCG 2 ng/mL, washed
[7] = biological target: Human chorionic gonadotropin (human) (UniProt P01215); assay: multiplex sandwich, MAB602 capture beads; hCG 0 ng/mL, washed
[8] = biological target: Human chorionic gonadotropin (human) (UniProt P01215); assay: multiplex sandwich, MAB602 capture beads; hCG 0.5 ng/mL, no wash
Alpha fetoprotein [9] = biological target: Alpha fetoprotein (UniProt P02771); assay: anti-AFP capture beads, flow cytometry; AFP 100.0 ng/mL, anti-AFP probe
Alpha fetoprotein [10] = biological target: Alpha fetoprotein (UniProt P02771); assay: multiplex sandwich, S10473 capture beads; AFP 1 ng/mL, no wash
Alpha fetoprotein [11] = biological target: Alpha fetoprotein (UniProt P02771); assay: multiplex sandwich, S10473 capture beads; AFP 250 ng/mL, no wash
[12] = biological target: Human chorionic gonadotropin (human) (UniProt P01215); assay: MAB602 capture beads, flow cytometry; hCG 0.0 ng/mL, anti-AFP probe
[13] = biological target: Human chorionic gonadotropin (human) (UniProt P01215); assay: MAB602 capture beads, flow cytometry; hCG 0.1 ng/mL, anti-AFP probe
Alpha fetoprotein [14] = biological target: Alpha fetoprotein (UniProt P02771); assay: multiplex sandwich, S10473 capture beads; AFP 62 ng/mL, no wash
[15] = biological target: Neutravidin (deglycosylated avidin) (UniProt P02701); assay: multiplex, Neutravidin bead 70/40 without peptide, flow cytometry
[16] = biological target: Neutravidin (deglycosylated avidin) (UniProt P02701); assay: single-analyte, Neutravidin bead 40/70 without peptide, flow cytometry
[17] = biological target: Neutravidin (deglycosylated avidin) (UniProt P02701); assay: multiplex, Neutravidin bead 40/40 without peptide, flow cytometry

UniProt P02771, sequence (P02771 19-609 limits assumed): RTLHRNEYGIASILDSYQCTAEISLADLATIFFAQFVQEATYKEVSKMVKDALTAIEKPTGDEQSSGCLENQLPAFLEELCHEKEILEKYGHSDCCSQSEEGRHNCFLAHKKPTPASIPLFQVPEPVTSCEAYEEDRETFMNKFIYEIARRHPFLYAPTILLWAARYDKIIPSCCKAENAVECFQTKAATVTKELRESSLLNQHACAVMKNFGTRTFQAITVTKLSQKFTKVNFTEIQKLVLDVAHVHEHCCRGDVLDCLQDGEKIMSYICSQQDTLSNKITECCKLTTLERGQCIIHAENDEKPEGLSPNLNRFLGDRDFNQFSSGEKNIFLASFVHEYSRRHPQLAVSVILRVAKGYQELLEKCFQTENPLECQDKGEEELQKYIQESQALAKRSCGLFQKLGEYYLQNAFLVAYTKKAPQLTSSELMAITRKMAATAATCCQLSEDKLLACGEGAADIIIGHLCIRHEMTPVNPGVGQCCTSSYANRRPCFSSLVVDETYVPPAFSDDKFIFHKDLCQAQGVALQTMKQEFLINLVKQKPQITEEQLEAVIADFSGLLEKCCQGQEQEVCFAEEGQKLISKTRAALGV
UniProt P01215, sequence (P01215 25-116, chain 1 of 2, other chains not shown): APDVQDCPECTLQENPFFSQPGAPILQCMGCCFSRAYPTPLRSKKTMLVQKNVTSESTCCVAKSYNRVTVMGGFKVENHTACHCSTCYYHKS
UniProt P02701, sequence (P02701 25-152 limits assumed): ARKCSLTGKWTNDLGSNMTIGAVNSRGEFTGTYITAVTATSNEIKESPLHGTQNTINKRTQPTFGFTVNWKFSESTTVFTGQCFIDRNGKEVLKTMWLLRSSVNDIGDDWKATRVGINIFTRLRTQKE

With “AB633 affinity purified polyclonal anti-hCG antibody, Bodipy FL-CASE labeled” the MIF of Fm [1] was 3200, the MIF of Fm [2] was 55 and the MIF of Fm [3] was 2950. It also gave an MIF of Fm (Alpha fetoprotein [4]) of 75, an MIF of Fm [5] of 650 and an MIF of Fm [6] of 547. For the same substance, the MIF of Fm [7] was 18 and the MIF of Fm [8] was 166.

In the case of “M20077 affinity purified polyclonal anti-AFP antibody, Bodipy FL-CASE labeled”, the MIF of Fm (Alpha fetoprotein [9]) is reported as 356, the MIF of Fm (Alpha fetoprotein [10]) is reported as 33 and the MIF of Fm (Alpha fetoprotein [11]) is reported as 956. The MIF of Fm [12] was 72, the MIF of Fm [13] was 49 and the MIF of Fm (Alpha fetoprotein [14]) was 980.

MAB 384, Bodipy FL-X labeled (antibody) showed an MIF of Fm [15] of 21, an MIF of Fm [16] of 43 and an MIF of Fm [17] of 25.
